# Where “and” joins values, the source holds several entries; their conditions need not be identical. Identical values can stand only once. Numbered stars: 1 amine (or outer) side, 2 acyl side, 3 side chain; on linkers, the order of the positions; unused ones are H or OH. Bridge positions count the residues as written; N and C are the ends. Square brackets hold non-standard residues; d marks the D form. Peptide text beside a SMILES is read from it. X1 = CC(C)CCCCCCCCC[C@H](CC(=O)[*:1])O[*:2]
# Key:
# [1] = tested on: bacterial communities at the surface of the steel; experiment: 16S rDNA analysis of microbial community on steel coupons; details: treated coupons
# Experimental: After photo imaging, on each of the coupon surface, all material including biofilm and tubercles were scraped into a sterile 50 ml polypropylene centrifuge tube (Corning, N.Y., USA) using a steel scraper. A 0.5 g subsample of the surface material from each coupon sample was used for DNA extraction using PowerSoil DNA kit (MoBio Laboratories). The extracted DNA was used to sequence the V4 region of 16S rDNA gene and describe changes in the composition of bacterial communities. DNA samples were quantified with a NanoDrop 2000 Spectrophotometer (Thermo Scientific, Waltham, Mass. USA) and then sent overnight to the University of Minnesota Genomics Center for 16S rDNA sequencing. 30 samples were multiplexed into a single run of Illumina MiSeq paired-end 300 cycles, which was expected to generate a total of 15 million sequences of the 254 bp portions of the 16S rDNA V4 region.
# Sequence data were processed and analyzed using the MOTHUR program. To ensure high quality data for analysis, sequence reads containing ambiguous bases, homopolymers >7 bp, more than one mismatch in the primer sequence, or an average per base quality score below 25 were removed. Sequences that only appear once in the total set were assumed to be a result of sequencing error and removed from the analysis. Chimeric sequences were also removed using the UCHIME algorithm within the MOTHUR program. […]
# [2] = tested on: corrosion tubercles on steel coupons; experiment: Biocorrosion of coated steel coupons in Duluth-Superior Harbor water, 8 weeks; design: concentration or dose not given beside the values; details: silica gel coating, two months in DSH water
# Experimental: The steel coupons were washed with soap water, lightly brushed for a few seconds with a test tube brush, and then rinsed with Milli-Q water to remove any loose material. Each coupon was designated with a unique number and weighed before being randomly assigned to a specific experimental treatment.
# Each compound or enzyme was added to 5 ml of the silica gel matrix to develop different coating treatments. These coatings were applied by dipping coupons into the appropriate gel mixture for 1 minute, and then the coating on the coupon surface was air-dried at room temperature for 2 hours.
# Six treatments and three controls were investigated for corrosion rate and changes in bacterial communities (Table 10). Each treatment or control contained three replicate steel coupons. After the triplicate steel coupons were coated with each biochemical, enzyme or bacterial treatment, they were incubated in experimental microcosms constructed from 10-gallon glass aquaria (Aqueon Glass, 50.8 cm×25.4 cm×30.5 cm) (FIG. 24). Each microcosm was equipped with an aquarium pump (Aquarium Systems Mini-Jet 404) to constantly circulate the water (˜2 L hr−1), and covered with a piece of acrylic with one corner cut out to allow gas exchange. The coupons were hold with plastic holders and immersed in water taken from the DSH for 8 weeks and then recovered for analyses.
# The coupons in each treatment was photographed by the end of the experiment. Biocorrosion was evaluated by the number and coverage of corrosion tubercles, and also by imaging of coupon surfaces with an environmental scanning electron microscope (ESEM). The coupon images were captured with DSLR camera immediately after being removed from the harbor water, and then tubercle numbers and total area in digital images were measured using the analyze menu within ImageJ software (NIH, Bethesda, Md., USA). Surface roughness measurements were also made after the exposed coupons were cleaned with ASTM G1-90 iron and steel chemical cleaning procedure (2 min in 37% HCl, 50 g/L SnCl2). A Hitachi TM-3030 ESEM was used to view details of the cleaned coupon surface and the 3D-View software was used to generate surface roughness measurements (SRa). Statistics analysis (T-tests) of the tubercle numbers, coverage and surface roughness were performed using Microsoft Excel software.
# [3] = target: GcL, quorum quenching lactonase from Geobacillus caldoxylosilyticus (Parageobacillus caldoxylosilyticus) (Geobacillus caldoxylosilyticus (Parageobacillus caldoxylosilyticus)); experiment: X-ray crystal structure, homodimer interface analysis
# [4] = Lactonase assay (pH indicator, cresol purple), kinetic measurements; assay type: biochemical
# Experimental: Kinetic measurements. The determination of GcL catalytic efficiency was performed by using a microplate reader (Synergy HTX, BioTek, USA) and the software Gen5.1 over a range of substrates (FIG. 2). The reactions were operate in a 96-well plate at a path length of 5.8 mm for a 200 μl reaction volume at room temperature. The catalytic parameters were achieved by fitting the data to Michaelis-Menten equation with the Graph-Pad Prism 5 software. When, Vmax was not reached, the catalytic efficiency was determined by fitting the linear part of Michaelis-Menten plot to a linear regression using Graph-Pad Prism 5.
# Lactonase assay. The AHL lactonolysis consisting in the opening of the lactone ring generates a proton, and leads to an acidification of the media. This property allowed the characterization of the lactonases by using a pH indicator assay. To perform the experiment 5 μl of enzyme were added to a solution containing 10 μl of substrates at various concentrations and 185 μl of lactonase buffer (2.5 mM Bicine pH 8.3, 150 mM NaCl, 0.2 mM CoCl2, 0.2 mM cresol purple, 0.5% DMSO). This assay was performed at 25° C. and the time course of the lactones hydrolysis was recorded at 577 nm. The characterization of the enzyme was proceeding against a large panel of AHLs: C4-AHL, C6-AHL, C8-AHL, C10-AHL, 3-oxo-C8-AHL and against γ-Butyrolactone, γ-Heptalactone, γ-Nonalactone, γ-Decanolactone, δ-Valerolactone, δ-Octanolactone, δ-Nonalactone, δ-Decalactone, ε-Caprolactone, ε-Decalactone, Whiskey lactone.
# soil bacterial community = experiment: Different lactonases on soil microbial community (Example 8); assay type: cell-based; details: 7 days, vs inactive SsoPox 5A8
# Experimental: Principal component analysis (PCA) based on deep bacterial 16S rDNA sequences (Illumina V4 region).
# The same experiments as described above were performed on the same soil microbial community but with two different lactonases, GcL, and Ssopox W263I. These enzymes differ primarily by their substrate specificity. […] This is important because different bacteria use different AHLs to communicate. Indeed, The structure of AHLs vary a lot with respect to the length of N-acyl chains (from C4 to C18), the hydroxyl or oxo group of the acyl chain and the saturated or unsaturated state of the carbon chain^1. The hydrophobicity of AHLs relates to their passive diffusion through membranes. […] In fact, regulatory circuits may be interconnected, like in P. aeruginosa^6, and allow for compensatory responses: if the LasI/LasR system is inactivated, the RhlI/RhlR system can still control LasI/LasR-spectific functions^7.
# algae and Zebra mussels = experiment: Antifouling activity of acrylic-lactonase coating, Lake Minnetonka, 1 month; details: 200 μg/mL, polycarbonate, controls BSA, copper oxide
# Experimental: Various polycarbonate samples were submerged in Lake Minnetonka (Tonka bay marina) for 1 month. Coatings were prepared with 200 μg/mL of control ingredients (BSA or copper oxide (CuO)) and of lactonases (SsoPox and GcL). Large zebra mussels are circled.
# We note that microscopy imaging highlights large differences in the surface colonization between the different treatments.
# [5] = at 75° C.; cited from earlier work
# Pseudomonas aeruginosa = experiment: Caenorhabditis elegans infection models (slow-killing, paralysis); assay type: in vivo; details: dose-dependent
# Source text: FIG. 34A-34C show protection of Caenorhabditis elegans from infection by Pseudomonas aeruginosa by lactonases. Slow-killing, gut infection assay performed with P. aeruginosa. Lactonases SsoPox (A) and GcL (B) are sprayed in the petri dish plate, and final concentrations are given. (C) Paralysis assay by P. aeruginosa, and treatment with SsoPox. […] OP50 Escherichia coli strain serves as a non-virulent control.
# The protection by lactonases is dose-dependent (FIG. 34) in both models.
molecule,measurement,setting,value
CC(C)CCCCCCCCC[C@@H]1CC(=O)N[C@@H](CCC(=O)O)C(=O)N[C@@H](CC(C)C)C(=O)N[C@H](CC(C)C)C(=O)N[C@@H](C(C)C)C(=O)N[C@@H](CC(=O)O)C(=O)N[C@H](CC(C)C)C(=O)N[C@@H](CC(C)C)C(=O)O1 [surfactin] (EL[dL]VD[dL]L; linker N-C via X1),"abundance of Burkholderiales, Pseudomonadales and Rhodospirillales",[1],significantly reduced
same,reduction of the coverage of corrosion tubercles,[2],37%
same,reduction of the number (formation) of corrosion tubercles,[2],31%
"GcL, quorum quenching lactonase from Geobacillus caldoxylosilyticus (Parageobacillus caldoxylosilyticus) (from UniProt A3FJ64 1-250) (enzyme)",interface surface between dimer,[3],1180 Å^2
"GcL: lactonase isolated from the thermophilic bacteria Geobacillus caldoxylosilyticus, SEQ ID NO:1 (protein, listed as Parageobacillus caldoxylosilyticus) MTVKKLYFIPAGRCMLDHSSVNSALTPGKLLNLPVWCYLLETEEGPILVDTGMPESAVNNEGLFNGTFVEGQILPKMTEEDRIVNILKRVGYEPDDLLYIISSHLHFDHAGGNGAFTNTPIIVQRTEYEAALHREEYMKECILPHLNYKIIEGDYEVVPGVQLLYTPGHSPGHQSLFIETEQSGSVLLTIDASYTKENFEDEVPFAGFDPELALSSIKRLKEVVKKEKPIIFFGHDIEQEKSCRVFPEYI",substrate specificity,[4]; AHL acyl chain length,proficiently degrades lactones ranging from C4 to C12 AHLs
same,catalytic efficiencies,[4]; AHLs with both short and long acyl chains,10^4 to 10^6 M^−1·s^−1
same,Km,[4]; range over tested substrates (with the exception of C4-AHL),0.5 to 20 µM and 0.67 to 21.1 µM
same,planktonic microbial community composition,soil bacterial community,induce differential planktonic microbial community biases
same,inhibition of biofouling,algae and Zebra mussels,more efficient at inhibiting biofouling than controls
same,half-life,[5],2.542 ± 0.167 h
same,survival of Caenorhabditis elegans,Pseudomonas aeruginosa,increase survival
"SsoPox: lactonase isolated from Sulfolobus solfataricus, SEQ ID NO:5 (protein, listed as Sulfolobus solfataricus) GMVRISIAGGNEIDPGSMGLTLFHEHLRLITEVVRWNWPHLYNEDEELKRAIDAVNAAKKYGVKTIIDLTVAGIGCDVRFNEKVAKATGVNIIMGTGFYTYTEIPFYFKNRGIDSLVDAFVHDITIGIQGTNTRAAFVKAVIDSSGLTKDVEMAIRAAAKAHIKTDVPIITHSFVGNKSSLDLIRIFKEEGVDLARTVIGHVGDTDDISFIEQILREGAFIGLDRFGLDIYLPLDKRVKTAIELIKRGWIDQLLLSHDYCPTIDWYPPEVVRSTVPDWTMTLIFEKVIPRMRSEGITEEQINRVLIDNPRRLFTGR",inhibition of biofouling,algae and Zebra mussels,more efficient at inhibiting biofouling than controls
same,survival of Caenorhabditis elegans,Pseudomonas aeruginosa,increase survival

# From patent US20220154156A1, “PROTEINS AND METHODS FOR DISRUPTING BACTERIAL COMMUNICATION” (REGENTS OF THE UNIVERSITY OF MINNESOTA, priority 2019, published 2022)
